Test [1] has as its target ArbB2 Met160Ala (Coffea arabica).
Test [2] has as its target ArbB2 Pro242Ala (Coffea arabica).

B1: ArbA2_(58–77) (ArbA2-FLWGY) (peptide)
peptide: GNTLKDFESKPGSFLWGYQG
Regarding B1, the loss of activity (relative conversion of ArbA2-FLWGY to product) against ArbB2 (% loss of activity) worked out at 60 in test [1] and 90 in test [2].

The values are drawn from publication PMC12186524.
